The source of these data is patent US20250361305A1 (ORIONIS BIOSCIENCES, published 2025).

Assay [1] concerns the target T1, PD-L1 antigen (ELISA of Example 2) (human, UniProt Q9NZQ7 19-239, limits assumed). As to the kind of experiment: ELISA, signal on PD-L1 antigen over control. A general note: In an ELISA, binding on a coated surface is turned into a signal by an enzyme label.
The target of assay [2] is T1, PD-L1 antigen (ELISA of Example 2). As to the kind of experiment: ELISA, signal on PD-L1 antigen.

T1 sequence (Q9NZQ7 19-239 limits assumed): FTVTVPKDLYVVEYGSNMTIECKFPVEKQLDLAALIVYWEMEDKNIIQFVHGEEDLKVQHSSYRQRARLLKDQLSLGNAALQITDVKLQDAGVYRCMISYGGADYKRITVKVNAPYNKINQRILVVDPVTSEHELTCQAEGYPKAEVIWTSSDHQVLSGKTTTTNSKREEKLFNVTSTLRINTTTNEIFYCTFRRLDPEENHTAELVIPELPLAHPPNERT

B1: 2LIG2 (VHH)
VHH: QVQLQESGGGLVQAGGSLRLSCAASGFTLDYYAIGWFRQAPGKEREEVSCISSSDGSTYYADSVKGRFTISRDNAKNTVNLQMNSLKPEDTAVYYCATDGWSSCRHGINEYLYWGQGTQVTVSS
notes: PD-L1 VHH
With B1, in assay [1], the A/control is 3.86. The ELISA in assay [2] worked out at 0.51.

B2: 3LIG3 (VHH)
VHH: QVQLQESGGGLVQPGGSLRLSCAASGFTLDYYAIGWFRQAPGKEREEVSCISSSDGSTYYADSVKGRFTISRDNAKNTVNLQMNSLKPEDTAVYYCATDGWSSCRHGINEYLYWGQGTQVTVSS
notes: PD-L1 VHH
With B2, the A/control in assay [1] came out at 7.16. The molecule also had an ELISA in assay [2] of 0.58.

B3: 3LIG33 (VHH)
VHH: QVQLQESGGGLVQPGTSLRLSCAASGFTLDYYAIGWFRQAPGKEREEVSCISSSDGSTYYADSVKGRFTISRDNAKNTVNLQMNSLKPEDTAVYYCATDGWSSCRHGINEYLYWGQGTQVTVSS
notes: PD-L1 VHH
Molecule B3 registered an A/control in assay [1] of 19.1. The molecule also showed an ELISA in assay [2] of 1.76.

B4: 3LIG7 (VHH)
VHH: QVQLQESGGGLVQAGGSLRLSCAASGFTFSSYGMSWVRQTPGKGPEWVSAIDSGGGSTSYADSVKGRFTISRDNAKNTLYLQMNSLKPEDTAVYYCAQGYYCSGYGCSDYWGQGTQVTVSS
notes: PD-L1 VHH
For the molecule B4, the A/control in assay [1] worked out at 37.6. The same molecule came in with an ELISA in assay [2] of 3.64.

B5: 3LIG9 (VHH)
VHH: QVQLQESGGGLVQPGGSLRLSCAASGFTFSSYGMSWVRQTPGKGPEWVSAIDSGGGSTSYADSVKGRFTISRDNAKNTLYLQMNSLKPEDTAVYYCAQGYYCSGYGCSDYWGQGTQVTVSS
notes: PD-L1 VHH
The molecule B5 registered an A/control in assay [1] of 37.7. This molecule returned an ELISA in assay [2] of 3.66.

B6: 2LIG29 (VHH)
VHH: QVQLQESGGGLVQTGGSLRLSCAASGFTFSSYGMSWVRQTPGKGPEWVSAIDSGGGSTSYADSVKGRFTISRDNAKNTLYLQMNSLKPEDTAVYYCAQGYYCSGYGCSDYWGQGTQVTVSS
notes: PD-L1 VHH
In the case of B6, the A/control in assay [1] was determined as 34.6. Further, the ELISA in assay [2] was 3.77.

B7: 2LIG35 (VHH)
VHH: QVQLQESGGGLVQPGGSLRLSCAASGFTFSSYGMSWVRQTPGKGPEWVSAIDSGGGSTSYADSVKGRFTTSRDNAKNTLYLQMNSLKPEDTAVYYCAQGYYCSGYGCSDYWGQGTQVTVSS
notes: PD-L1 VHH
For B7, the A/control in assay [1] came to 8.18. Also, in assay [2], the ELISA is 0.844.

B8: 2LIG109 (VHH)
VHH: QVQLQESGGGLVQSGGSLRLSCKTSGFTFSSYGMSWVRQTPGKGPEWVSAIDSGGGSTSYADSVKGRFTISRDNAKNTLYLQMNSLKPEDTAVYYCAQGYYCSGYGCSDYWGQGTQVTVSS
notes: PD-L1 VHH
In assay [1], B8 gave an A/control of 32.6. In addition, the ELISA in assay [2] came out at 3.55.

B9: 2LIG22 (VHH)
VHH: QVQLQESGGGLVQPGGSLRLSCAASGFTLDYYAINWFRQAPGKEREEVSCISSSDGSTYYADSVKGRFTISRDNAKNTVYLQMNSLKPEDTAVYYCATSGWRLCRPTDEYDYSYWGQGTQVTVSS
notes: PD-L1 VHH
In assay [1], B9 gave an A/control of 4.55. In addition, in assay [2], the ELISA is 0.469.

B10: 3LIG28 (VHH)
VHH: QVQLQESGGGLVQPGGSLRLSCAASGFTLDYYAINWFRQAPGKEREEVSCISSSDGSTYYADSVKGRFTISRDNAKNTVYLQMNSLKPEDTAVYYCATSGWRLCRPTDEYDYLYWGQGTQVTVSS
notes: PD-L1 VHH
The molecule B10 displayed an A/control in assay [1] of 33.2. Besides, the ELISA in assay [2] was 3.03.

B11: 2LIG85 (VHH)
VHH: QVQLQESGGGLVQPGGSLRLSCAASGFTFTAYAMSWFRQAPGKEREEVSCINSSDGSTYYADSVKGRFTISRDNAKNTVYLQMNSLKPEDTAVYHCATDGWRDCTWSNEYAYWGQGTQVTVSS
notes: PD-L1 VHH
Turning to B11, the A/control in assay [1] stood at 22.6. The ELISA in assay [2] stood at 2.67.

B12: 2LIG176 (VHH)
VHH: QVQLQESGGGLVQAGGSLRLSCAASESIFSIEAMGWYRQAPGKQRELVAAIFGGGFTNYADSVKGRFTISRDNANRTVYLQMNSLKPEDTAVYYCNADLVSGSSRLYDYWGQGTQVTVSS
notes: PD-L1 VHH
The molecule B12 displayed an A/control in assay [1] of 4.22. The ELISA in assay [2] amounted to 0.415.

B13: 2LIG86 (VHH)
VHH: QVQLQESGGGLVQPGGSLRLSCAASGFTFDYYAIGWFRQAPGKEREEVSCISGSDSSTYYADSVKGRFTIVRDNAQNTVYLQMNSLKPEDTAIYYCAVTGWRTCRGLNEYDYWGQGTQVTVSS
notes: PD-L1 VHH
For the molecule B13, the A/control in assay [1] was 33.6. Besides, the ELISA in assay [2] came out at 3.8.

B14: 2LIG48 (VHH)
VHH: QVQLQESGGGLVQPGGSLRLSCAASGFTFNDYAMSWVRQAPGKGLEWVSGIRSNGGYTNYADSVKGRFTISRDNAKNTLYLQMNSLKSEDTAVYYCAQGYYCSGYGCYPGQGTQVTVSS
notes: PD-L1 VHH
For B14, in assay [1], the A/control stood at 33.2. The ELISA in assay [2] was 4.

B15: 2LIG16 (VHH)
VHH: QVQLQESGGGLVQPGGSLRLSCAASGFTFDDYGMSWVRQAPGKGLEWVSAIRWNGGSTNYADSVKGRFTISRDNAKNTLYLQMNSLKSEDTAVYYCAQGYYCSGYGCPRGQGTQVTVSS
notes: PD-L1 VHH
On to B15, for which the A/control in assay [1] was found to be 26.4. In assay [2], this molecule registered an ELISA of 3.02.

B16: 3LIG30 (VHH)
VHH: QVQLQESGGGTVQAGGSLRLSCAASGFTFNDYAMSWVRQAPGKGLEWVSGIRSNGGYTNYADSVKGRFTISRDNAKNTLYLQMNSLKSEDTAVYYCAQGYYCSGYGCYPGQGTQVTVSS
notes: PD-L1 VHH
In the case of B16, the A/control in assay [1] came out at 47.3. Moreover, the ELISA in assay [2] was 4.

B17: 3LIG18 (VHH)
VHH: QVQLQESGGGLVQPGGSLRLSCAASGFNLDPYAIAWFRQAPGKEREEVSCISSSDVGTYYADSVKGRFTISRDNAKKTVYLQMNSLKPEDTAVYYCATDGYYYCSDYPHPLYWGQGTQVTVSS
notes: PD-L1 VHH
In assay [1], B17 returned an A/control of 40. Also, the ELISA in assay [2] was 3.5.

B18: 2LIG139 (VHH)
VHH: QVQLQESGGGLVQPGGSLRLSCAVSGFNLDPYAIAWFRQAPGKEREEVSCISSSDVGTYYADSVKGRFTISRDNAKKTVYLQMNSLKPEDTAVYYCATDGYYYCSDYPHPLYWGQGTQVTVSS
notes: PD-L1 VHH
B18 showed an A/control in assay [1] of 33.3. Moreover, the ELISA in assay [2] came out at 4.

B19: 2LIG89 (VHH)
VHH: QVQLQESGGGLVQPGGSLRLSCAASGFNLDPYAIAWFRQAPGKEREEVSCISSSDVGTYYADSVKGRFTISRDNTKKTVYLQMNSLKPEDTAVYYCATDGYYYCSDYPHPLYWGQGTQVTVSS
notes: PD-L1 VHH
For the molecule B19, the A/control in assay [1] was determined as 27.2. This molecule came in with an ELISA in assay [2] of 2.88.

B20: 2LIG65 (VHH)
VHH: QVQLQESGGGLVQAGGSLRLSCAASGFNLDPYAIAWFRQAPGKEREEVSCISSSDVGTYYADSVKGRFTISRDNAKKTVYLQMNSLKPEDTAVYYCATDGYYYCSDYPHPLYWGQGTQVTVSS
notes: PD-L1 VHH
For B20, in assay [1], the A/control was 23.6. The molecule also yielded an ELISA in assay [2] of 2.11.

B21: 2LIG127 (VHH)
VHH: QVQLQESGGGLVQPGGSLRLSCAASGFNLDPYAIGWFRQAPGKEREEVSCISSGDGSKYYADSVKGRFTMSRDNAKKTVYLQMNSLKPEDTAVYYCATDGYYYCSDYPHPLYWGQGTQVTVSS
notes: PD-L1 VHH
For the molecule B21, the A/control in assay [1] came out at 34.6. The ELISA in assay [2] amounted to 3.73.

B22: 2LIG30 (VHH)
VHH: QVQLQESGGGLVQPGGSLRLSCAASGKIFSGNDMGWYRQAPGKQRELVGIITSGGITDYADAVKGRFTISRDNAKNMMYLQMNSLKPEDTAVYYCNMRDRTIWWGQGTQVTVSS
notes: PD-L1 VHH
B22: the A/control in assay [1] stood at 9.59. In addition, the ELISA in assay [2] amounted to 1.11.

B23: 2LIG189 (VHH)
VHH: QVQLQESGGGLVQAGGSLRLSCAASGKIFSGNDMGWYRQAPGKQRELVGIITSGGITDYADAVKGRFTISRDNAKNMMYLQMNSLKPEDTAVYYCNMRDRTIWWGQGTQVTVSS
notes: PD-L1 VHH
B23 registered an A/control in assay [1] of 12.9. Moreover, in assay [2], the ELISA stood at 2.23.

B24: 2LIG27 (VHH)
VHH: QVQLQESGGGVVQAGGSLRLSCTASGTIFSINRMDWFRQAPGKQRELVALITSDGTPTYADSAKGRFTISRDNTKKTVSLQMNSLKPEDTAVYYCHVSSGVYNYWGQGTQVTVSS
notes: PD-L1 VHH
In turn, B24 returned an A/control in assay [1] of 3.78. This molecule also returned an ELISA in assay [2] of 0.429.

B25: 2LIG3 (VHH)
VHH: QVQLQESGGGLVQAGGSLRLSCTASGTIFSINHMDWFRQAPGKQRELVALITSDGFPTYADSAKGRFTISRDNTKKTVSLQMNSLKPEDTAVYYCHVSSGVYNYWGQGTQVTVSS
notes: PD-L1 VHH
As to B25, the A/control in assay [1] turned out to be 9.75. The ELISA in assay [2] is 1.46.

B26: 2LIG99 (VHH)
VHH: QVQLQESGGGLVQAGGSLRLSCTASGTIFSINRMDWFRQAPGKQRELVALITSDGTPAYADSAKGRFTISRDNTKKTVSLQMNSLKPEDTAVYYCHVSSGVYNYWGQGTQVTVSS
notes: PD-L1 VHH
In the case of B26, the A/control in assay [1] stood at 9.16. The ELISA in assay [2] was found to be 2.11.

B27: 2LIG97 (VHH)
VHH: QVQLQESGGGLVQAGESLRLSCTASGTIFSINRMDWFRQAPGKQRELVALITSDGTPTYADSAKGRFTISRDNTKKTVSLQMNSLKPEDTAVYYCHVSSGVYNYWGQGTQVTVSS
notes: PD-L1 VHH
B27: the A/control in assay [1] was found to be 5.13. The same molecule yielded an ELISA in assay [2] of 1.03.

B28: 3LIG8 (VHH)
VHH: QVQLQESGGGLVQPGGSLRLSCTASGTIFSINRMDWFRQAPGKQRELVALITSDGTPTYADSAKGRFTISRDNTKKTVSLQMNSLKPEDTAVYYCHVSSGVYNYWGQGTQVTVSS
notes: PD-L1 VHH
B28: the A/control in assay [1] came out at 4.39. For the same molecule, in assay [2], the ELISA amounted to 0.429.

B29: 2LIG34 (VHH)
VHH: QVQLQESGGGSVQAGGSLRLSCTASGTIFSINRMDWFRQAPGKQRELVALITSDGTPTYADSAKGRFTISRDNTKKTVSLQMNSLKPEDTAVYYCHVSSGVYNYWGQGTQVTVSS
notes: PD-L1 VHH
In assay [1], B29 gave an A/control of 3.59. In assay [2], the ELISA was 0.568.
